Measurements as given in publication PMC12394075, “Domain coupling in activation of a family C GPCR” (Nature Chemical Biology, 2024).

Biological target: the molecule itself
Assay: SEC; Superose 6 10/300 increase GL equilibrated in detergent-free buffer, after elution in 0.005% MNG/GDN/CHS

B1: full-length mGluR2 (FLAG-tagged, purified in detergent micelles) (receptor, rat, UniProt P31421 19-872, looked up)
chain: EGPAKKVLTLEGDLVLGGLFPVHQKGGPAEECGPVNEHRGIQRLEAMLFALDRINRDPHLLPGVRLGAHILDSCSKDTHALEQALDFVRASLSRGADGSRHICPDGSYATHSDAPTAVTGVIGGSYSDVSIQVANLLRLFQIPQISYASTSAKLSDKSRYDYFARTVPPDFFQAKAMAEILRFFNWTYVSTVASEGDYGETGIEAFELEARARNICVATSEKVGRAMSRAAFEGVVRALLQKPSARVAVLFTRSEDARELLAATQRLNASFTWVASDGWGALESVVAGSERAAEGAITIELASYPISDFASYFQSLDPWNNSRNPWFREFWEERFHCSFRQRDCAAHSLRAVPFEQESKIMFVVNAVYAMAHALHNMHRALCPNTTHLCDAMRPVNGRRLYKDFVLNVKFDAPFRPADTDDEVRFDRFGDGIGRYNIFTYLRAGSGRYRYQKVGYWAEGLTLDTSFIPWASPSAGPLPASRCSEPCLQNEVKSVQPGEVCCWLCIPCQPYEYRLDEFTCADCGLGYWPNASLTGCFELPQEYIRWGDAWAVGPVTIACLGALATLFVLGVFVRHNATPVVKASGRELCYILLGGVFLCYCMTFVFIAKPSTAVCTLRRLGLGTAFSVCYSALLTKTNRIARIFGGAREGAQRPRFISPASQVAICLALISGQLLIVAAWLVVEAPGTGKETAPERREVVTLRCNHRDASMLGSLAYNVLLIALCTLYAFKTRKCPENFNEAKFIGFTMYTTCIIWLAFLPIFYVTSSDYRVQTTTMCVSVSLSGSVVLGCLFAPKLHIILFQPQKNVVSHRAPTSRFGSAAPRASANLGQGSGSQFVPTVCNGREVVDSTTSSL
notes: also called full-length mGluR2 construct; full-length receptor
binding result: binds
